From article PMC10219671

Molecular target: SARS-CoV-2 HR2 protein (heptad repeat 2 of the S2 subunit of the spike protein) (SARS-CoV-2)
Test: ELISA

SARS-CoV-2 HR1 protein (heptad repeat 1 of the S2 subunit of the spike protein) (domain or fragment)
IC50: 47.8 nM
